Experimental data from PMC5776806.

Molecular target: extracellular soluble part of EGFR (sEGFR) (UniProt P00533)
Experiment: SPR

EGF (ligand)
Kd: 60 nM
